Assay results published in patent US20240425885.

Columns and labels:
Assay in all cases: cleavage_in_vitro
[1] = system: T1, OMNI-99 (metagenomic, unknown); settings: TXTL; PAM NAGACNNN
T1 sequence: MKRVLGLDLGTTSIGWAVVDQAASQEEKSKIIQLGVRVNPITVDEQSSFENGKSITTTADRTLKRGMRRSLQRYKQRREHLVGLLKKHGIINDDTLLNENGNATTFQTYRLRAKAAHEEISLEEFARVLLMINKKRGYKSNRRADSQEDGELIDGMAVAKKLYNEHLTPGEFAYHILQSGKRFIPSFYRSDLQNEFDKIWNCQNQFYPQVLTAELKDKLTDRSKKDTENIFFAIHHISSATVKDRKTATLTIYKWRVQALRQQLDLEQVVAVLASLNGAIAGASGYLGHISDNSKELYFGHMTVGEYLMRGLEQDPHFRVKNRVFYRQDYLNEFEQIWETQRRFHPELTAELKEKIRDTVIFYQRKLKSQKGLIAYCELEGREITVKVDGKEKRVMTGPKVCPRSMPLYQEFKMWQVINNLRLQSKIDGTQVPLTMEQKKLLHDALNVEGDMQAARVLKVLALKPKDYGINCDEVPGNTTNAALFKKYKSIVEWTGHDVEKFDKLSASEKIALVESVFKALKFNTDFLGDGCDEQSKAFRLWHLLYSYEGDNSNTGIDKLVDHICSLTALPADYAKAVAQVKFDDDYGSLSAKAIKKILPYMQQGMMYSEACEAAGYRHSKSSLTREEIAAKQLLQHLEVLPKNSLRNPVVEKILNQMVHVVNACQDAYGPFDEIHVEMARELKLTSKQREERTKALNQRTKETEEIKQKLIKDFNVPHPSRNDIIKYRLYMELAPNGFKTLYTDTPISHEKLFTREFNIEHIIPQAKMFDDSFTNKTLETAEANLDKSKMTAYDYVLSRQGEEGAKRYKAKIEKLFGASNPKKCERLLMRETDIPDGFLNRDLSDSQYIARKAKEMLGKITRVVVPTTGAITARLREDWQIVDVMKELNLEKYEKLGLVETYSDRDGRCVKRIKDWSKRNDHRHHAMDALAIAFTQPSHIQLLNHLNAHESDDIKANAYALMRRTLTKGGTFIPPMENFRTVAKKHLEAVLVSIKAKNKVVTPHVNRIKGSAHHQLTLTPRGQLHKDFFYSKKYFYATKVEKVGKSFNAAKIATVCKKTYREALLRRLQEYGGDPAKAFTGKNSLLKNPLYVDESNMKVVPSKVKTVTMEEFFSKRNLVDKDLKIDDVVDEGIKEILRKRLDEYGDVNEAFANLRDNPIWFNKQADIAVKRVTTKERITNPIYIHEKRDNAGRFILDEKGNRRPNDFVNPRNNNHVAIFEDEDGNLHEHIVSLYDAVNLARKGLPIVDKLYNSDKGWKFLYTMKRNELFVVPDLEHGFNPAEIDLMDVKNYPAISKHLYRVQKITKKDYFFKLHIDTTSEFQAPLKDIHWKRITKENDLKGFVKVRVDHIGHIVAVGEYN

[2] = system: T2, OMNI-106 (metagenomic, unknown); settings: TXTL; PAM NRKAACNN
T2 sequence: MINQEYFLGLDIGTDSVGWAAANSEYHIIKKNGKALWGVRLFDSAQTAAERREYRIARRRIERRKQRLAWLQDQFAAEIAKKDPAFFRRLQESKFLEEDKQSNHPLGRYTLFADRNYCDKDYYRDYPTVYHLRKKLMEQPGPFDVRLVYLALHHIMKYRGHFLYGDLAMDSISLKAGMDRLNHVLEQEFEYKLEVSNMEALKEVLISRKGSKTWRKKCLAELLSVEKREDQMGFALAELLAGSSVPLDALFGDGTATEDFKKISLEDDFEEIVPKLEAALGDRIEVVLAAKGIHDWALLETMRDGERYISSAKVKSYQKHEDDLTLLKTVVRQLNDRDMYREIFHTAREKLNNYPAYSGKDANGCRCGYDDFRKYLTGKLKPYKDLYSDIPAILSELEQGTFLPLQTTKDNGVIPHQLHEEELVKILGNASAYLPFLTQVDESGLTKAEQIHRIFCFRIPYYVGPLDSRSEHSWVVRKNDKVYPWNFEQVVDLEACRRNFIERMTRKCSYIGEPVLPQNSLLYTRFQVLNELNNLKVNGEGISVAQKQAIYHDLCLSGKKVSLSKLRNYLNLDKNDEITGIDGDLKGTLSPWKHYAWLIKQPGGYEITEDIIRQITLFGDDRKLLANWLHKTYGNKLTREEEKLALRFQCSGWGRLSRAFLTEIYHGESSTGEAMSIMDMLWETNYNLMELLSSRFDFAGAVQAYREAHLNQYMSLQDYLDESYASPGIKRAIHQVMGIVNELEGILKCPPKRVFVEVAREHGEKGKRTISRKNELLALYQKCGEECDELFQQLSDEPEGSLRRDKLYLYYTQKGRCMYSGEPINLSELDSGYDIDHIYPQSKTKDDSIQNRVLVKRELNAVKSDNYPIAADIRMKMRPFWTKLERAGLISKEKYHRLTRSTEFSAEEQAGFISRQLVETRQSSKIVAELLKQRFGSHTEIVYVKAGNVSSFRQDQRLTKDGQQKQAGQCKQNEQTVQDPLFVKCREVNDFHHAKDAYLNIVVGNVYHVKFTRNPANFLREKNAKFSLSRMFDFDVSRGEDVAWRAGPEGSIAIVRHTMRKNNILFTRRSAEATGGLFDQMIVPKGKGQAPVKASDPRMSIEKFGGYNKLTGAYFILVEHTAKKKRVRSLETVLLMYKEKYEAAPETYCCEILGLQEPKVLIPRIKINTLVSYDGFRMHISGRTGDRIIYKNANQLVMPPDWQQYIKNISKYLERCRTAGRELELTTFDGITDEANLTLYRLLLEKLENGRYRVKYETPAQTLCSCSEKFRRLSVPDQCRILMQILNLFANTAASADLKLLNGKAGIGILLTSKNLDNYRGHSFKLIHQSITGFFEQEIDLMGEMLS

[3] = system: OMNI-110 (metagenomic, unknown); settings: TXTL; PAM NNRTNCNN
OMNI-110 (metagenomic, unknown), sequence (chain, as listed by the source): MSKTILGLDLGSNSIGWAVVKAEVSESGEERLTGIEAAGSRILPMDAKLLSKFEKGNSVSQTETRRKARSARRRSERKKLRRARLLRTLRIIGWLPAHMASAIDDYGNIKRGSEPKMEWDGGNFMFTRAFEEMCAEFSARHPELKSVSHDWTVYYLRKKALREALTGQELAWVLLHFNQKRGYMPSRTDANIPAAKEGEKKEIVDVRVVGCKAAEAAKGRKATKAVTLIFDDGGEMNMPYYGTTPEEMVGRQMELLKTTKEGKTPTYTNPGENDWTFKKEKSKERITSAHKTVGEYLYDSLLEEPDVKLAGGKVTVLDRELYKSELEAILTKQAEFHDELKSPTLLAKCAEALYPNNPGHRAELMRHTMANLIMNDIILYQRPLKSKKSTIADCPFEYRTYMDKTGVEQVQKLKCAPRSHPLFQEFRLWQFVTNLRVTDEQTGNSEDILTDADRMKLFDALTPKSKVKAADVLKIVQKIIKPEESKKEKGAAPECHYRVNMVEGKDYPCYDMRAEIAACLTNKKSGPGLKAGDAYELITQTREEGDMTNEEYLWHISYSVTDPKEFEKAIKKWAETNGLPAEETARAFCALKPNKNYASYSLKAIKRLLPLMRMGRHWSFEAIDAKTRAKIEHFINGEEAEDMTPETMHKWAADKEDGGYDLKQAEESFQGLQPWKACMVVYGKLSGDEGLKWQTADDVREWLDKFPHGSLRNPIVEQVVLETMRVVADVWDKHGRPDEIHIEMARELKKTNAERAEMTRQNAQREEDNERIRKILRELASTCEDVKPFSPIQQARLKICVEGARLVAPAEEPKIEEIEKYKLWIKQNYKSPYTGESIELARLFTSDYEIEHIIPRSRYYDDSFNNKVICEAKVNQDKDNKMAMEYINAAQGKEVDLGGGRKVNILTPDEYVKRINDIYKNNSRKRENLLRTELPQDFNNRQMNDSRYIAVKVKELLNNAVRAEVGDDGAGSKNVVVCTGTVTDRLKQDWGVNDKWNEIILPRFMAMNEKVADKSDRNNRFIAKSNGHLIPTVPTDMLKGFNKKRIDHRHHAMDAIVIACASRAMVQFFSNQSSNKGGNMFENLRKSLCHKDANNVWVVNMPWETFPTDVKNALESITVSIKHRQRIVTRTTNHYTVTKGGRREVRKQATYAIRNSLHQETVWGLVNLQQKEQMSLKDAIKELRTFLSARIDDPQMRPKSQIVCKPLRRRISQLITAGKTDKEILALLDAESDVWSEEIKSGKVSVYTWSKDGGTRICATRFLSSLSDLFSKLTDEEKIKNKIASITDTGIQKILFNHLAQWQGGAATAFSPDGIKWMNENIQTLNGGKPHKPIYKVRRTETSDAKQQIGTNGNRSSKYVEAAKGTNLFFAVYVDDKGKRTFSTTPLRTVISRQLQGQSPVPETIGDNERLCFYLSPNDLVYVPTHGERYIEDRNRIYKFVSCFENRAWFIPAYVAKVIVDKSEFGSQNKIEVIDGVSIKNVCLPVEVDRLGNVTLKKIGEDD

[4] = system: T3, OMNI-109 (metagenomic, unknown); settings: TXTL; PAM NNAARCNN
T3 sequence: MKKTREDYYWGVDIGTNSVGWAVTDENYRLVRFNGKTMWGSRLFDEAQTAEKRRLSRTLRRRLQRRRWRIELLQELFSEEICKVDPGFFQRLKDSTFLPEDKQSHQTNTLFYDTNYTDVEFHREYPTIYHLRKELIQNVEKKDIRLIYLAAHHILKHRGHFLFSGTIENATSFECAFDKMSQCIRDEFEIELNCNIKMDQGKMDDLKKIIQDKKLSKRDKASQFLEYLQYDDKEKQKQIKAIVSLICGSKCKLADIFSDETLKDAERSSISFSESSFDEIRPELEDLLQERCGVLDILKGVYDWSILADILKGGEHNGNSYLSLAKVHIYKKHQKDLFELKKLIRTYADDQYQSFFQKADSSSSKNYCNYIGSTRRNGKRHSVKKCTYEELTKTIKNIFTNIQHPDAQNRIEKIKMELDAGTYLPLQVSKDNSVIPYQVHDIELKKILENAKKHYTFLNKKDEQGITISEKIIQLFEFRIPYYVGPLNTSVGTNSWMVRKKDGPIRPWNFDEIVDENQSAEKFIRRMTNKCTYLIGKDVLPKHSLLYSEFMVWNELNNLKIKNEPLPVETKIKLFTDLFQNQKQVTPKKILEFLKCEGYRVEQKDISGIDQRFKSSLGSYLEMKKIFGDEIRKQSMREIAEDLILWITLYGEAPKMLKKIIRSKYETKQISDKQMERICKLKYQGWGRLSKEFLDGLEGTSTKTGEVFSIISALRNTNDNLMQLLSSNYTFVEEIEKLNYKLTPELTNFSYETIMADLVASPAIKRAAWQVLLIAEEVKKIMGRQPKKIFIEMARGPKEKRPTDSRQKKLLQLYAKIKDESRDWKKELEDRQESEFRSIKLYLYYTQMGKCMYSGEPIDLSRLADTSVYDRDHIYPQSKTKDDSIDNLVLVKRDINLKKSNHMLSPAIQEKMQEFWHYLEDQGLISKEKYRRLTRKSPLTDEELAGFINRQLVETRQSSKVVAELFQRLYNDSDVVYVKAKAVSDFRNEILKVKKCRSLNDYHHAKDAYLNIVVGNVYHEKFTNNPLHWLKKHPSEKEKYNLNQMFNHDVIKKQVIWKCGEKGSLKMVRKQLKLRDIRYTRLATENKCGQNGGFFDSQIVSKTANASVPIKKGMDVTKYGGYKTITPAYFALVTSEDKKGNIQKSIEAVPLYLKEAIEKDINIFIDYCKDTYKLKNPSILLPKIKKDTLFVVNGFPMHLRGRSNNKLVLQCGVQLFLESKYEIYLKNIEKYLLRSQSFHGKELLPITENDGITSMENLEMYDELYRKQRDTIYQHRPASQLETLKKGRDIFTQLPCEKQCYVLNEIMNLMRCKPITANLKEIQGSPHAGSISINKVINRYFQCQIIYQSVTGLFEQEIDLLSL

Sequence: GGAAGAGCAGAGCCUUGGUCUCGUUGUGAAUUGCUUUCGAAAGAAGCAAUUCACAAUAAGGAUUAUUCCGUUGUGAAAACAUCAGGAGCGGGUUCUACUCGCUCUUUUUU / GGAAGAGCAGAGCCTTGGTCTCNNNNNNNN / NNNNNNNNGAGACCAAGGCTCTGCTCTTCC [T2 sgRNA 10 V1 ; T2 protospacer + 8N PAM library (pbPOS T2)]
- activity (1-depletion score) [1]: 0.93

Sequence: GGAAGAGCAGAGCCUUGGUCUCGUUUGAGAGUCGUGCUGGAAACAACACGACGGGUUCAAAUACGGCUUUGCCAAAACCGCUGGUUUGAUCCAGCUUCACAGUGUGUGAGGGUAAAAAGUCCGCUAUGCGGACUUUUUUU / GGAAGAGCAGAGCCTTGGTCTCNNNNNNNN / NNNNNNNNGAGACCAAGGCTCTGCTCTTCC [T2 sgRNA 15 V1 ; T2 protospacer + 8N PAM library (pbPOS T2)]
- activity (1-depletion score) [2]: 0.95

Sequence: GGAAGAGCAGAGCCUUGGUCUCGUUGUGAUUCGCUUCCGAAAGCAAGCGAAUCACAAUAAGGAUUAUUCCGUUGUGAAAACAUUUAAGUCGGGCCUCCUUCGGUUGGCUCGGCUUUUUUU / GGAAGAGCAGAGCCTTGGTCTCNNNNNNNN / NNNNNNNNGAGACCAAGGCTCTGCTCTTCC [T2 sgRNA 18 V1 ; T2 protospacer + 8N PAM library (pbPOS T2)]
- activity (1-depletion score) [3]: 0.95

Sequence: GGAAGAGCAGAGCCUUGGUCUCGUUUGAGAGUAGUGUAAGAAAUUACACUACAAGUUCAAAUAAAAAUUUAUUCUAAUCGCUCUUCGGAGCCUCCACAGGAGUGGAUUUAAGACUUGCUUCGGCGAGUCUUUUUU / GGAAGAGCAGAGCCTTGGTCTCNNNNNNNN / NNNNNNNNGAGACCAAGGCTCTGCTCTTCC [T2 sgRNA 17 V1 ; T2 protospacer + 8N PAM library (pbPOS T2)]
- activity (1-depletion score) [4]: 0.94
